# Biological target: acetylcholine receptor (Homo sapiens, UniProt P02708)
# Test: SPR binding affinity (RU) of optimized 5mer/6mer/7mer peptides, Examples 6-7
# Conditions: 6mer-1 Top sequence; SPR; peptides tested at 10 μM
# Method: Based on the frequencies of occurrence of the top 7 amino acids from Table 7 in Example 5, 600 peptides comprising these amino acids (top combinations) and those comprising the 13 less frequently occurring amino acids (bottom combinations) were synthesized for each series of 5mer, 6mer-1, and 6mer-2. The binding affinity of each sequence for the acetylcholine receptor was measured using Surface Plasmon Resonance (SPR) analysis method. The peptides were tested at a concentration of 10 μM. Additionally, the average binding affinities of the top and bottom combinations in each series are depicted in FIGS. 5-7.
# Representative peptides identified in Example 6, two in each library, including 5mers (73, 311) and 6mers-1 (43, 210) and 6mers-2 (136, 233), were compared with the pre-optimized 6mer, 5mer-ND, and Synake.
# Sequence of acetylcholine receptor (P02708 21-457): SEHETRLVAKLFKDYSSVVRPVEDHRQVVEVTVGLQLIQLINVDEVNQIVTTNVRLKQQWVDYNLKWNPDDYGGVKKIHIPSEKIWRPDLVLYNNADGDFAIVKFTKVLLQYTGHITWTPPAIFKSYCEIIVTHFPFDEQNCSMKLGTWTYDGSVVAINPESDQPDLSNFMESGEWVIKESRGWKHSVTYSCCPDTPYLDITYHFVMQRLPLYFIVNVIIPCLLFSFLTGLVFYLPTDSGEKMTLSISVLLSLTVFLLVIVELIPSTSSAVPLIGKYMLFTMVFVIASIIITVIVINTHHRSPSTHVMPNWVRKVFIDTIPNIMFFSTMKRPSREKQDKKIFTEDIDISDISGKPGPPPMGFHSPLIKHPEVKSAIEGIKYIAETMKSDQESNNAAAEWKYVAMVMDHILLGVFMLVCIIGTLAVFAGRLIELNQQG
row,Substance,Binding affinity [Ru]
1,6mer-1-234 (RRGISR),142
2,6mer-1-232 (RRRICK),146
3,6mer-1-249 (RKGVSR),142
4,6mer-1-321 (RKQVRR),154
5,6mer-1-354 (KKVFLK),153
6,6mer-1-337 (RKSRRR),144
7,6mer-1-291 (KKQIRK),142
8,6mer-1-359 (KRQFLR),131

# Same assay, conditions: 6mer-2 Top sequence; SPR; peptides tested at 10 μM
row,Substance,Binding affinity [Ru]
1,6mer-2-163 (KWFYRR),149
2,6mer-2-129 (KSVLRK),139
3,6mer-2-17 (RWVTRR),142
4,6mer-2-18 (RSILRR),124
5,6mer-2-185 (RGYQKR),137
6,6mer-2-172 (KVIRKK),128
7,6mer-2-110 (KSQLKK),153
8,6mer-2-116 (KLQRKK),126
9,6mer-2-34 (KVFRRK),124

# Same assay, conditions: SPR, Resonance Units; 5mer Bottom sequence (bottom combinations); peptides tested at 10 μM
row,Substance,Binding affinity [Ru]
1,5mer-1049 (KPPGR),29
2,5mer-672 (KHAPK),12
3,5mer-799 (KDKPR),24
4,5mer-959 (KPNMK),29
5,5mer-1076 (KFEKK),21
6,5mer-685 (RNDIK),21
7,5mer-676 (RTMFR),18
8,5mer-921 (KKKFK),21
9,5mer-622 (RKPKR),22
10,5mer-667 (RDCHR),16
11,5mer-1025 (RHKWK),25
12,5mer-768 (RDSWR),11
13,5mer-1022 (KIADK),29
14,5mer-977 (KNMIR),16
15,5mer-689 (RFSDK),20
16,5mer-973 (RYWAR),12

# Same assay, conditions: SPR, Resonance Units; peptides tested at 10 μM; 6mer-1 Bottom sequence
row,Substance,Binding affinity [Ru]
1,6mer-1-1143 (KRHEFK),32
2,6mer-1-1005 (RKPPDR),26
3,6mer-1-1114 (KKFNFK),38
4,6mer-1-1086 (RKEANK),22
5,6mer-1-1096 (RKPEPR),23
6,6mer-1-1076 (RKKEPK),43

# Same assay, conditions: SPR, Resonance Units; peptides tested at 10 μM; 6mer-1 Bottom sequence (Table 11)
row,Substance,Binding affinity [Ru]
1,6mer-1-633 (RKIDAK),16
2,6mer-1-655 (RKNMFR),12
3,6mer-1-666 (KKAANK),18
4,6mer-1-775 (KKYPWR),12
5,6mer-1-601 (KKEWNK),27
6,6mer-1-729 (KKKSGK),23
7,6mer-1-613 (KRIMKK),14

# Same assay, conditions: SPR, Resonance Units; peptides tested at 10 μM; 6mer-2 Bottom sequence
row,Substance,Binding affinity [Ru]
1,6mer-2-615 (KDNGRK),27
2,6mer-2-801 (RPNIRK),24
3,6mer-2-629 (RFCWKK),32
4,6mer-2-691 (RHKMRK),15
5,6mer-2-822 (RCTAKK),13
6,6mer-2-619 (RPPDRR),26
7,6mer-2-710 (RNKKKK),14
8,6mer-2-802 (KETKRR),24
9,6mer-2-878 (KETVRR),24
10,6mer-2-701 (KTWAKR),23
11,6mer-2-794 (KAEMRR),19
12,6mer-2-703 (RTMHKR),14
13,6mer-2-681 (RDTWRR),33

# Same assay, conditions: SPR, Resonance Units; peptides tested at 10 μM; 6mer-2 Top sequence
row,Substance,Binding affinity [Ru]
1,6mer-2-442 (RLVQKR),139
2,6mer-2-496 (RVRYRK),144
3,6mer-2-503 (KVQTKK),154
4,6mer-2-536 (RWQRKK),125
5,6mer-2-554 (RWRCRR),121

# Same assay, conditions: SPR, Resonance Units; peptides tested at 10 μM; 6mer-2 Top sequence (Table 12)
row,Substance,Binding affinity [Ru]
1,6mer-2-266 (RWQTKK),131
2,6mer-2-377 (RRYCRR),142
3,6mer-2-245 (RSLSKR),135
4,6mer-2-356 (RLLQRR),145
5,6mer-2-371 (KRLSRR),148
6,6mer-2-253 (KLRSRR),145
7,6mer-2-235 (KLVRKK),136
8,6mer-2-218 (KGVSKK),147

# Same assay, conditions: SPR, peptides at 10 μM; 6mer-2 Bottom sequence
row,Substance,Binding affinity [Ru]
1,6mer-2-1017 (RAPVRR),40
2,6mer-2-1096 (RANVKR),39
3,6mer-2-1100 (RTAPKK),24
4,6mer-2-1128 (KNCMRK),36
5,6mer-2-1169 (KICERK),21
6,6mer-2-1127 (KAAEKK),42
7,6mer-2-1171 (KMPARR),40
8,6mer-2-1065 (RIANRK),27
9,6mer-2-1014 (RPPMRR),34
10,6mer-2-1111 (REDEKK),23

# Same assay, conditions: SPR, peptides tested at 10 μM; 5mer Top sequence
row,Substance,Binding affinity [Ru]
1,5mer-356 (KQVLR),65
2,5mer-41 (KVISK),82
3,5mer-423 (RRQLK),60
4,5mer-74 (RQITK),87
5,5mer-60 (RLFTK),86
6,5mer-208 (KLICR),80
7,5mer-372 (RSVCR),54
8,5mer-373 (KVFTK),87
9,5mer-149 (KQFLR),80
10,5mer-147 (RRYQK),66
11,5mer-438 (RVRSR),76
12,5mer-30 (KSQLR),70

# Same assay, conditions: SPR, peptides tested at 10 μM; 5mer Top sequence (top combinations)
row,Substance,Binding affinity [Ru]
1,5mer-553 (KLLSR),72
2,5mer-289 (RRQYR),87
3,5mer-217 (KLQRR),72
4,5mer-549 (KWITK),78
5,5mer-565 (RLVSK),77
6,5mer-572 (KLRTK),58

# Same assay, conditions: SPR, peptides tested at 10 μM; 6mer-1 Bottom sequence (Table 11)
row,Substance,Binding affinity [Ru]
1,6mer-1-908 (KKFMVR),37
2,6mer-1-859 (RKCMVK),27
3,6mer-1-885 (RRKTPR),17
4,6mer-1-924 (RKFNWR),29
5,6mer-1-837 (KRDHAK),19
6,6mer-1-981 (RKDDKK),27
7,6mer-1-803 (RKMKHK),31
8,6mer-1-831 (KKNPWK),15

# Same assay, conditions: SPR, peptides tested at 10 μM; 6mer-1 Top sequence
row,Substance,Binding affinity [Ru]
1,6mer-1-483 (KRQVTK),151
2,6mer-1-562 (KRSYQR),148
3,6mer-1-515 (RRGLSR),139
4,6mer-1-594 (KRQLQR),121

# Same assay, conditions: SPR, peptides tested at 10 μM; 6mer-1 Top sequence (top combinations)
row,Substance,Binding affinity [Ru]
1,6mer-1-122 (KKLIRK),139
2,6mer-1-148 (RKLRCR),146

# Same assay, conditions: SPR; XRRQRR-6mer and RRQRRX-6mer
row,Substance,"Binding affinity, relative value to the RRQRR sequence"
1,3611 (SRRQRR) [compound 3611],121

# Same assay, conditions: SPR; peptides tested at 10 μM; 5mer Bottom sequence
row,Substance,Binding affinity [Ru]
1,5mer-1137 (KEEEK),22
2,5mer-1190 (RFSEK),32
3,5mer-1155 (RYDMK),25
4,5mer-899 (RYTFR),31
5,5mer-1169 (KDTPK),29

# Reference: patent publication US20250011363A1, “OPTIMIZED SHORTENED PEPTIDE THAT BINDS TO ACETYLCHOLINE RECEPTOR, AND USE THEREOF” (SKINMED CO., LTD., priority 2021, published 2025)
